Experimental data from publication PMC3143821 (Molecular cell, 2011).

B1: TRBP (natural protein, human, UniProt Q15633 1-366, looked up)
chain: MSEEEQGSGTTTGCGLPSIEQMLAANPGKTPISLLQEYGTRIGKTPVYDLLKAEGQAHQPNFTFRVTVGDTSCTGQGPSKKAAKHKAAEVALKHLKGGSMLEPALEDSSSFSPLDSSLPEDIPVFTAAAAATPVPSVVLTRSPPMELQPPVSPQQSECNPVGALQELVVQKGWRLPEYTVTQESGPAHRKEFTMTCRVERFIEIGSGTSKKLAKRNAAAKMLLRVHTVPLDARDGNEVEPDDDHFSIGVGSRLDGLRNRGPGCTWDSLRNSVGEKILSLRSCSLGSLGALGPACCRVLSELSEEQAFHVSYLDIEELSLSGLCQCLVELSTQPATVCHGSATTREAARGEAARRALQYLKIMAGSK
B2: Argonaute2 (Ago2) (enzyme)
chain: not shown
B3: PACT (natural protein, human, UniProt O75569 1-313, looked up)
chain: MSQSRHRAEAPPLEREDSGTFSLGKMITAKPGKTPIQVLHEYGMKTKNIPVYECERSDVQIHVPTFTFRVTVGDITCTGEGTSKKLAKHRAAEAAINILKANASICFAVPDPLMPDPSKQPKNQLNPIGSLQELAIHHGWRLPEYTLSQEGGPAHKREYTTICRLESFMETGKGASKKQAKRNAAEKFLAKFSNISPENHISLTNVVGHSLGCTWHSLRNSPGEKINLLKRSLLSIPNTDYIQLLSEIAKEQGFNITYLDIDELSANGQYQCLAELSTSPITVCHGSGISCGNAQSDAAHNALQYLKIIAERK

Molecular target: human Dicer (human, UniProt Q9UPY3 1-1922)
Sequence (Q9UPY3 whole entry): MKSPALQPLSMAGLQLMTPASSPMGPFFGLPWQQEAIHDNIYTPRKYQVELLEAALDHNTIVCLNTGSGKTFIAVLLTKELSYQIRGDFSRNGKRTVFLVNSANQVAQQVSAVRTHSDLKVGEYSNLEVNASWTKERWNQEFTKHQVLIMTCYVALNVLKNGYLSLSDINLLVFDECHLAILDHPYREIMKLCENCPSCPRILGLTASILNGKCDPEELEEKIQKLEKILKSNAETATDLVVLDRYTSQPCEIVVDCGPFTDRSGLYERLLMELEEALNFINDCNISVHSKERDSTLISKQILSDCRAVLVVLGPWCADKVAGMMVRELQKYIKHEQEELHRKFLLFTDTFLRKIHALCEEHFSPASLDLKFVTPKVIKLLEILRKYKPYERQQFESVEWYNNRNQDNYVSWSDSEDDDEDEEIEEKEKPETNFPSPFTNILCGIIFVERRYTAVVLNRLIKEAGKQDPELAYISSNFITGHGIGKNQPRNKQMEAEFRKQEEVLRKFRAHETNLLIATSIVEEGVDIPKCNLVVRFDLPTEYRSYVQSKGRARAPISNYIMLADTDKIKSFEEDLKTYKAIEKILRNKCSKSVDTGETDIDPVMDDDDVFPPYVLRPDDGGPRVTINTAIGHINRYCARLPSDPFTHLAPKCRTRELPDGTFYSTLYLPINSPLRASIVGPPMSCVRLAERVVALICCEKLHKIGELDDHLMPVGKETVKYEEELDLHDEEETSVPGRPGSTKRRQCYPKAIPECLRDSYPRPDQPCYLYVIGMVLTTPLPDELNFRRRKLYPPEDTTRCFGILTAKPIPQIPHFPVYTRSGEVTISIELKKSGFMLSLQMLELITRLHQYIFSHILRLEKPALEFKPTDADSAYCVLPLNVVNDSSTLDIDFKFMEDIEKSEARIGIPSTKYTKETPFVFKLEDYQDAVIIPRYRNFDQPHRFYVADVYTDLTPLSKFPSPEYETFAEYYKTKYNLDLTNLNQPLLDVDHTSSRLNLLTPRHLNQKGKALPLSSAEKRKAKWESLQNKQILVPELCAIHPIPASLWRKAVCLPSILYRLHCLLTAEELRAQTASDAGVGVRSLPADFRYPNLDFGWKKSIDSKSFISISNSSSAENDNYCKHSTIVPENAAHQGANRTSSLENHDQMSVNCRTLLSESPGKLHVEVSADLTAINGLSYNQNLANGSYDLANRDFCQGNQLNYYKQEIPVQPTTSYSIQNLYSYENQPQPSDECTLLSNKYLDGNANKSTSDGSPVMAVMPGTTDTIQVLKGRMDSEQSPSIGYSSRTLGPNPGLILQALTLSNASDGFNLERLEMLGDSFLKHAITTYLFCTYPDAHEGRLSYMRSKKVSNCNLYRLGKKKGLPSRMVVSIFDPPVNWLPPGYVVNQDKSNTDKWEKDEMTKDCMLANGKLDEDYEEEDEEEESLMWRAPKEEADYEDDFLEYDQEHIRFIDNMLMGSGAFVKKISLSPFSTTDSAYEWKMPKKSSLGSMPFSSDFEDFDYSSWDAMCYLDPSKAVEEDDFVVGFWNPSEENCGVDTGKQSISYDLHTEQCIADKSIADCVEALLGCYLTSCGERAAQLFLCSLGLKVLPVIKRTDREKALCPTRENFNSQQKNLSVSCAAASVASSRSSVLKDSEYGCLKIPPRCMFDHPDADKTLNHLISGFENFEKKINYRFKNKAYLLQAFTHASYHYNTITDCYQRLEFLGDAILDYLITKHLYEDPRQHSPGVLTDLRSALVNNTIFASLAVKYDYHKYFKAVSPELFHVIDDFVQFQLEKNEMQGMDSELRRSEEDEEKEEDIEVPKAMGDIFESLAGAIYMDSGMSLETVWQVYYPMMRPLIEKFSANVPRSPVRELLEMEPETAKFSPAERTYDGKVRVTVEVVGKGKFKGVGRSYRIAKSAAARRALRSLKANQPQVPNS
Assay: in vitro reconstitution of the complex

| binding result | Binder |
| --- | --- |
| binds | B1 |
| binds | B2 |
| binds | B3 |
